B1: Smaug NTD (aa 70-281, His-tag removed) (domain or fragment, Drosophila, UniProt Q23972 70-281, looked up)
chain: SNALFCEQVTTVTNLFEKWNDCERTVVMYALLKRLRYPSLKFLQYSIDSNLTQNLGTSQTNLSSVVIDINANNPVYLQNLLNAYKTFQPCDLLDAMSSSSSDKDSMPCYGSDFQITTSAQCDERKLYARKEDILHEVLNMLPLLKPGNEEAKLIYLTLIPVAVKDTMQQIVPTELVQQIFSYLLIHPAITSEDRRSLNIWLRHLEDHIQAAA
B2: Smoothened 970-1003 synthetic peptide (wild-type) (peptide)
peptide: VPSYGEDELQQAMRLLNAASRQRTEAANEDFGGT
B3: Smaug 73-278Δ156-196 (Smaug part of the single-chain crystallisation construct) (domain or fragment, Drosophila, UniProt Q23972 73-278, looked up)
chain: LFCEQVTTVTNLFEKWNDCERTVVMYALLKRLRYPSLKFLQYSIDSNLTQNLGTSQTNLSSVVIDINANNPVYLQNLLNAYKTARKEDILHEVLNMLPLLKPGNEEAKLIYLTLIPVAVKDTMQQIVPTELVQQIFSYLLIHPAITSEDRRSLNIWLRHLEDHIQ

Tests used:
[1] = molecular target: T1, Smaug NTD (Drosophila melanogaster, UniProt Q23972 70-281); experiment: EMSA
T1 sequence: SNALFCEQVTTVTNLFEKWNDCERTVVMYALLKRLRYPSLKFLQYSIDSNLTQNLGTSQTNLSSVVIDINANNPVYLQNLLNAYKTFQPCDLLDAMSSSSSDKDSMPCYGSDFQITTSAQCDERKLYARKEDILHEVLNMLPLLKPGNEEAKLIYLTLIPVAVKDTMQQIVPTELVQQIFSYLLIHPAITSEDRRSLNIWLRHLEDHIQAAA

[2] = molecular target: B2; experiment: ITC
[3] = molecular target: B1; experiment: ITC
[4] = molecular target: B3; experiment: crystal structure
[5] = molecular target: the molecule itself; experiment: crystal structure

Binder: AGCACCGUAAAGC (ssRNA) [R13C]
- binding result [1]: no binding

Binder: B1
- stoichiometry N [2]: 1

Binder: B2
- Kd [3]: 800 nM

Binder: VPSYGEDELQQAMRLLNAASRQRTEAANEDFGGT [Smo 970-1003 (Smoothened part of the single-chain crystallisation construct)]
- binding result [4]: binds

Binder: B3
- binding result [5]: binds
